Measured values taken from publication PMC3904261 (British Journal of Pharmacology, 2013).
Bridge positions count the residues as written; N and C are the ends. Ends that are not written are not given here.

Assays:
CGRP receptor [1] = target: T1, CGRP receptor (Homo sapiens, UniProt O60894+Q16602); assay: β-arrestin 2 translocation in CHO-K1 cells (PathHunter eXpress); format: cell-based; set-up: host or cells: CHO-K1 (PathHunter eXpress β-arrestin kit)
Protocol: (§1) GraphPad Prism 5.00 or 6.00 (GraphPad Software Inc., San Diego, CA, USA) was used for data fitting. Concentration–response curves were fitted to a sigmoidal function with Hill slope constrained to unity to obtain pEC50 and maximum responses (Emax) values. Displacement curves were analysed to obtain pIC50 values. Schild plots were fitted by linear regression to obtain slope and intercepts. pEC50 and pIC50 values were compared with that of human αCGRP using Dunnett's test with either a normal or repeated measures one-way ANOVA, as appropriate.

CGRP receptor [2] = target: T1, CGRP receptor; assay: Antagonism of CGRP-stimulated cAMP production in SK-N-MC cells; format: cell-based; set-up: relative expression levels of the receptors (endogenous vs. overexpressed); endogenous in cells; host or cells: SK-N-MC cells (ECACC clone; ATCC clone for [Cys5]-CGRP)
Protocol: (§2) Production of cAMP in SK-N-MC cells for all analogues except [[…]]-hαCGRP was by a radioreceptor assay, as described previously (Poyner et al., [1998]). […] For [[…]]-hαCGRP, a different clone of SK-N-MC cells was used and cAMP production was measured via AlphaScreen (Perkin Elmer, Wellesley, MA, USA), as described previously ([…] et al., [2010]). This assay was also used to investigate the action of all derivatives at the AMY1(a) receptor and other experiments using Cos 7 cells. […] GraphPad Prism 5.00 or 6.00 (GraphPad Software Inc., San Diego, CA, USA) was used for data fitting. Concentration-response curves were fitted to a sigmoidal function with Hill slope constrained to unity to obtain pEC50 and maximum responses (Emax) values. Displacement curves were analysed to obtain pIC50 values. Schild plots were fitted by linear regression to obtain slope and intercepts. pEC50 and pIC50 values were compared with that of human αCGRP using Dunnett's test with either a normal or repeated measures one-way ANOVA, as appropriate.

CGRP receptor [3] = target: T1, CGRP receptor; assay: cAMP production in SK-N-MC cells; format: cell-based; set-up: relative expression levels of the receptors (endogenous vs. overexpressed); endogenous in cells; host or cells: SK-N-MC cells (ECACC clone; ATCC clone for [Cys5]-CGRP)
Protocol: as §2

AMY1(a) receptor = target: T2, AMY1(a) receptor (Homo sapiens, UniProt O60894+P30988); assay: cAMP production in Cos 7 cells via the AMY1(a) receptor; format: cell-based
T2 construct: HA; expressed in transfected cells; host or cells: Cos 7
Protocol: as §2, with “SK-N-MC cells were grown in DMEM/F12 medium supplemented with 10% fetal calf serum as described previously (Poyner et al., [1998]). […] Production” for “Production”

CGRP receptor [4] = target: T1, CGRP receptor; assay: cAMP production in Cos 7 cells transfected with CLR and RAMP1; format: cell-based; set-up: relative expression levels of the receptors (endogenous vs. overexpressed); endogenous in cells; host or cells: SK-N-MC cells (ECACC clone; ATCC clone for [Cys5]-CGRP); details: read-out: Emax, % of that of CGRP, AlphaScreen
Protocol: as §2, with “SK-N-MC cells were grown in DMEM/F12 medium supplemented with 10% fetal calf serum as described previously (Poyner et al., [1998]). […] Production” for “Production”

CGRP receptor [5] = target: T1, CGRP receptor; assay: Displacement of 125I-CGRP binding to SK-N-MC cell membranes; set-up: relative expression levels of the receptors (endogenous vs. overexpressed); endogenous in cells; host or cells: SK-N-MC cells (ECACC clone; ATCC clone for [Cys5]-CGRP); details: 125I-CGRP binding, SK-N-MC membranes; listed as [Cys^5]-CGRP
Protocol: as §1

[6] = target: T3, CGRP receptor (calcitonin receptor-like receptor in complex with receptor activity-modifying protein 1) (human (endogenous in SK-N-MC), UniProt Q16602 23-461; O60894 27-148); assay: cell-based or functional assay
[7] = target: T3, CGRP receptor (calcitonin receptor-like …); assay: cell-based or functional assay; remark: listed apart in the source
[8] = target: T3, CGRP receptor (calcitonin receptor-like …); assay: radioligand binding; displacement of ^125I-CGRP from SK-N-MC cell membranes by unlabelled peptides, microcentrifugation-based binding assay; [Cys^5]-CGRP and its control on another batch of SK-N-MC cells; details: one partner purified
[9] = target: AMY_(1(a)) receptor (human HA-tagged CT (a) receptor with human myc-tagged RAMP1) (human) (UniProt O60894)
[10] = 2 h stimulation, means ± SEM, n = 3, listed as [Cys^6]
[11] = radioreceptor assay, approx. 10 min, means ± SEM, n = 3–6, listed as [Cys^6]
[12] = AlphaScreen, means ± SEM, n = 3–6, listed as [Cys^6]

T3 sequence (Q16602 23-461, chain 1 of 2): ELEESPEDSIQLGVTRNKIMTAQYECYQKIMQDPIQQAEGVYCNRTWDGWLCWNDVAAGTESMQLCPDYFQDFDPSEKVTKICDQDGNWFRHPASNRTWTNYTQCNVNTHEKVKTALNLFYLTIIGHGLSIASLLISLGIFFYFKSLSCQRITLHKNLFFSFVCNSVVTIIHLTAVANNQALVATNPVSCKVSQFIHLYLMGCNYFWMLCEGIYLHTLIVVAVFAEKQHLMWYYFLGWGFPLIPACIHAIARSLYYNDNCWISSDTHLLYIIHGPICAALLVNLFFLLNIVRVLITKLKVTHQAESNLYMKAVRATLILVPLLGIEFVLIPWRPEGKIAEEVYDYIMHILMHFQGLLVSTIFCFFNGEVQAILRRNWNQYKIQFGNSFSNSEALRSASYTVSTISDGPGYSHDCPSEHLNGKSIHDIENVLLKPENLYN
T3 sequence (O60894 27-148, chain 2 of 2): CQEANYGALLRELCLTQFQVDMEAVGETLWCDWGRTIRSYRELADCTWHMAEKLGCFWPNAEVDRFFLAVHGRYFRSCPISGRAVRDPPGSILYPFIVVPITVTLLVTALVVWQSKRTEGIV
T1 sequence (Q16602 23-461): as the sequence (Q16602 23-461, chain 1 of 2) above
T1 sequence (O60894 27-148): as the sequence (O60894 27-148, chain 2 of 2) above
T2 sequence (P30988 25-474): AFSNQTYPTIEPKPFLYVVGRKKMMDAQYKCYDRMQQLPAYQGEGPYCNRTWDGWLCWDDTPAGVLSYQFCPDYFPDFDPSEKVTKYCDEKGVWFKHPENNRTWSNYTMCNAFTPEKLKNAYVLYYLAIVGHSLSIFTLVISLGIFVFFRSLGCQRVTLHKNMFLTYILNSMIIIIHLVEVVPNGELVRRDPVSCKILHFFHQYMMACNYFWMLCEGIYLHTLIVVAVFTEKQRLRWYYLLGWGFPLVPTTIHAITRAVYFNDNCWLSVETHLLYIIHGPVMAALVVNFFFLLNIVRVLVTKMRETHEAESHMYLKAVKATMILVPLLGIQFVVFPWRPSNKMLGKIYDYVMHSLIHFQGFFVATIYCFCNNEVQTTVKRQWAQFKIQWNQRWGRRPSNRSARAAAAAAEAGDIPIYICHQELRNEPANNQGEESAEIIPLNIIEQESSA
T2 sequence (O60894 27-148): as the sequence (O60894 27-148, chain 2 of 2) above
AMY_(1(a)) receptor (human HA-tagged CT (a) receptor with human myc-tagged RAMP1) (human), sequence (O60894 whole entry, looked up): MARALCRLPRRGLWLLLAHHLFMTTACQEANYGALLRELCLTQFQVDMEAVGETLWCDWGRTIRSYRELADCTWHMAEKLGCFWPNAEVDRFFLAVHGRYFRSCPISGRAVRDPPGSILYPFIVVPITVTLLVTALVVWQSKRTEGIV

Molecule	pEC50, cAMP production in the second clone of SK-N-MC cells, AlphaScreen (control experiment) [6]	Emax (% CGRP), cAMP production in SK-N-MC cells [7] [% CGRP]	Emax (% CGRP), β-arrestin 2 translocation in CHO-K1 cells expressing the human CGRP receptor [7] [% CGRP]	pEC50, cAMP production in SK-N-MC cells [7]	pEC50, β-arrestin 2 translocation in CHO-K1 cells expressing the human CGRP receptor [7]	pKi [8]	Emax (% CGRP), cAMP production in Cos 7 cells with the AMY (1(a)) receptor [9] [% CGRP]	pEC50, cAMP production in Cos 7 cells with the AMY (1(a)) receptor [9]	further results
CC(C)C[C@H](NC(=O)CNC(=O)[C@H](C)NC(=O)[C@H](CC(C)C)NC(=O)[C@H](CCCNC(=N)N)NC(=O)[C@H](Cc1c[nH]cn1)NC(=O)[C@@H](NC(=O)[C@@H](NC(=O)[C@@H]1CSSC[C@H](NC(=O)[C@@H](N)CS)C(=O)N[C@@H](CC(=O)O)C(=O)N[C@@H]([C@@H](C)O)C(=O)N[C@@H](C)C(=O)N[C@@H]([C@@H](C)O)C(=O)N1)C(C)C)[C@@H](C)O)C(=O)N[C@@H](CC(C)C)C(=O)N[C@@H](CO)C(=O)N[C@@H](CCCNC(=N)N)C(=O)N[C@@H](CO)C(=O)NCC(=O)NCC(=O)N[C@H](C(=O)N[C@H](C(=O)N[C@@H](CCCCN)C(=O)N[C@@H](CC(N)=O)C(=O)N[C@@H](CC(N)=O)C(=O)N[C@@H](Cc1ccccc1)C(=O)N[C@H](C(=O)N1CCC[C@H]1C(=O)N[C@H](C(=O)N[C@@H](CC(N)=O)C(=O)N[C@H](C(=O)NCC(=O)N[C@@H](CO)C(=O)N[C@@H](CCCCN)C(=O)N[C@@H](C)C(=O)N[C@@H](Cc1ccccc1)C(N)=O)C(C)C)[C@@H](C)O)C(C)C)C(C)C)C(C)C [[Cys^1]]									β-Arrestin (CHO-K1) Emax (% CGRP) CGRP analogue (CGRP receptor [1]; [10]): Undetectable; β-Arrestin (CHO-K1) pEC50 CGRP analogue (CGRP receptor [1]; [10]): Undetectable; Emax (CGRP receptor [1]; CHO-K1, CHO-K1 cells, compared with CGRP, read-out: reduction of Emax, β-arrestin 2 translocation): 45%; decrease in potency for β-arrestin 2 translocation compared with CGRP (CGRP receptor [1]; CHO-K1 cells): ninefold; stimulation of β-arrestin 2 translocation (CGRP receptor [1]; CHO-K1 cells, [Asp6] and [Lys6] at concentrations of up to 1 μM): unable to stimulate; slope of Schild plot (CGRP receptor [2]; listed as [Cys^5]-CGRP): 1.33 ± 0.30; slope of Schild plot (CGRP receptor [2]; listed as [Cys^6]-CGRP): 0.98 ± 0.20; decrease in potency on cAMP compared with CGRP (CGRP receptor [3]; SK-N-MC cells): over 100 fold; stimulation of cAMP production (CGRP receptor [3]; SK-N-MC cells, [Asp6] and [Lys6] at concentrations of up to 10 μM): unable to stimulate; cAMP (SK-N-MC) Emax (% CGRP) CGRP analogue (CGRP receptor [3]; [11]): Undetectable; cAMP (SK-N-MC) pEC50 CGRP analogue (CGRP receptor [3]; [11]): Undetectable; fold less potent than CGRP, cAMP at AMY1(a) receptor (AMY1(a) receptor): 75 fold; stimulation of cAMP production at AMY1(a) receptor (AMY1(a) receptor): no consistent stimulations; AMY1(a) receptor-stimulated cAMP Emax (% CGRP) CGRP analogue (AMY1(a) receptor; [12]): Undetectable; AMY1(a) receptor-stimulated cAMP pEC50 CGRP analogue (AMY1(a) receptor; [12]): Undetectable; Emax (CGRP receptor [4]): 90 ± 8%; decrease in affinity compared with CGRP (CGRP receptor [5]): > 270 fold
ACDTAACVTHRLAGLLSRSGGVVKNNFVPTNVGSKAF-NH2 (disulfide 2-7) [[Ala^6]-CGRP]	7.39	72	43	6.59	7.74	8.57	42	7	
ACDAATCVTHRLAGLLSRSGGVVKNNFVPTNVGSKAF-NH2 (disulfide 2-7) [[Ala^4]-CGRP]	7.58	100	73	7.43	8.42	9.4	161	8.57	
ACDTCTCVTHRLAGLLSRSGGVVKNNFVPTNVGSKAF-NH2 (disulfide 2-7; N-terminus assumed; SMILES CC(C)C[C@H](NC(=O)CNC(=O)[C@H](C)NC(=O)[C@H](CC(C)C)NC(=O)[C@H](CCCNC(=N)N)NC(=O)[C@H](Cc1c[nH]cn1)NC(=O)[C@@H](NC(=O)[C@@H](NC(=O)[C@@H]1CSSC[C@H](NC(=O)[C@H](C)N)C(=O)N[C@@H](CC(=O)O)C(=O)N[C@@H]([C@@H](C)O)C(=O)N[C@@H](CS)C(=O)N[C@@H]([C@@H](C)O)C(=O)N1)C(C)C)[C@@H](C)O)C(=O)N[C@@H](CC(C)C)C(=O)N[C@@H](CO)C(=O)N[C@@H](CCCNC(=N)N)C(=O)N[C@@H](CO)C(=O)NCC(=O)NCC(=O)N[C@H](C(=O)N[C@H](C(=O)N[C@@H](CCCCN)C(=O)N[C@@H](CC(N)=O)C(=O)N[C@@H](CC(N)=O)C(=O)N[C@@H](Cc1ccccc1)C(=O)N[C@H](C(=O)N1CCC[C@H]1C(=O)N[C@H](C(=O)N[C@@H](CC(N)=O)C(=O)N[C@H](C(=O)NCC(=O)N[C@@H](CO)C(=O)N[C@@H](CCCCN)C(=O)N[C@@H](C)C(=O)N[C@@H](Cc1ccccc1)C(N)=O)C(C)C)[C@@H](C)O)C(C)C)C(C)C)C(C)C) [[Cys^5]-CGRP]			55		8.25	8	50	7.78	pEC50, cAMP production in Cos 7 cells transfected with CLR and RAMP1 [6]: 7.9; pEC50, cAMP production in SK-N-MC cells (other clone of cells, AlphaScreen; footnote: no response seen in five experiments) [7]: 7.18
